Measurements from the nanobody polyreactivity screen of Harvey et al. (2022).

Experiment: yeast display, Sf9 membrane polyspecificity reagent, FACS + sequencing; frameworks hold sequencing errors
In short: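 Nanobodies from a synthetic yeast display library (Saccharomyces cerevisiae BJ5465), induced 36–48 hours with galactose, were stained 1 hour at 4 °C with 10% biotinylated, detergent-solubilized Sf9 membrane reagent, enriched on streptavidin microbeads, then FACS-sorted. Anti-HA (expression) and streptavidin (reagent binding) fluorescence set low and high (top ~1%) gates. Polyreactivity labels come from the gate of origin. Genes were colony-PCR amplified, MiSeq 2 × 250 sequenced and filtered by CDR length.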

Sequence | polyreactivity (PSR sort gate)
QVQLVESGGGLVQAGGSLRLSCAASGFIFYDYAMGWYRQAPGKERELVAVITSGGSTYYADSVKGRFTISRDNAKNTVYLQMNSLKPEDTAVYYCNADWVFTWYDYPNDTYDYWGQGTQVTVSS | low polyreactivity
QVQLVESGGGLVQAGGSLRLSCAASGFIFYDYSMAWYRQAPGKEREFVAAISWSGGRTYYADSVKGRFTISRDNAKNTVYLQMNSLKPVDTAVYYCAVDAYRYWWTTYVSDFDYWGQGTQVTVSS | high polyreactivity
QVQLVESGGGLVQAGGSLRLSCAASGFIFYFYAMGWYRQAPGKERELVAAISSGGSTNYADSVKGRFTISRDNAQNTVYIQMNSQKPEDTAVYYCNKSGYSKYFLNDYTYWGQGTQVTVSS | low polyreactivity
QVQLVESGGGLVQAGGSLRLSCAASGFIFYFYAMGWYRQAPGKERELVAAISWSGGSTYYADSVKGRFTISRDNAKNTDYLQMNSLKPEDTAVYYCAAQSWSGDSTFWRYDYWGQGTQVTVSS | low polyreactivity
QVQLVESGGGLVQAGGSLRLSCAASGFIFYFYAMGWYRQAPWKERELVAAISSGGSTNYADSVKGRFTISRDNAKNTVYLQMISLKPEDTAVYYCARKTSSYFGHYYYWGQGTQVTVSS | low polyreactivity
QVQLVESGGGLVQAGGSLRLSCAASGFIFYFYTMGWYRQAPGKERELVAGITWLDGSTYYADSVKGRFTISRDNAKNTVYLQMNSLKPEDTAVYYCAVDYDLVVSPYYYWGQGTQVTVSS | low polyreactivity
QVQLVESGGGLVQAGGSLRLSCAASGFIFYGYTMGWYRQAPGKERELVAAITRGGSTYYADSVKGRFTISRDNAKNTVYLQMNSLKPEDTAVYYCAALTWDGMDYWGQGTQVTVSS | high polyreactivity
QVQLVESGGGLVQAGGSLRLSCAASGFIFYHNAMGWYRQAPGKERELVAAISQSGGRTYYADSVKGRFTISRDNAKNTVYLQMNSLKPEDTAGYYCAKRTRVYHPTYDYWGQGTQVTVSS | high polyreactivity
QVQLVESGGGLVQAGGSLRLSCAASGFIFYHYAMGWYRQAPGKARELVAAISGRGGSTYYADSVKGRFTISRDNAKNTVYLQMNSLKPEDTAVYYCATDRQRADYYWGQGTQVTVSS | high polyreactivity
QVQLVESGGGLVQAGGSLRLSCAASGFIFYHYVLGWYRQAPGKERELVAAITRGGSTYADSVKGRFTISRDNAKNTVYLQMNSLKPEDTAVYYCNADYPFSYFTRLMDYWGQGTQVTVSS | low polyreactivity
QVQLVESGGGLVQAGGSLRLSCAASGFIFYIYAMGWYRQAPGKERELVAAITSGGSTYYADSVKGRFTISRDNAKNTVYLQMNSLKPEDTAVYFCAAESYYGYDYWGQGTQVTLSS | low polyreactivity
QVQLVESGGGLVQAGGSLRLSCAASGFIFYKNAMGWSRQAPGKEREFVAAITWSGGNTYYADSVKGRFTISRDNAKNTVYLQLNSLKPEETAVYYCAARDSKWGQGTQVTVSS | low polyreactivity
QVQLVESGGGLVQAGGSLRLSCAASGFIFYKNAMGWYRQAPGKERELVAAISASGVRTYYADSVKGRFTISRDNAKNTVYLQMNSLKPEDTAVYYSAADYTPEYYWGQGTQVTVSS | high polyreactivity
QVQLVESGGGLVQAGGSLRLSCAASGFIFYKYAMGWYRQAPGKERELVAAITASGGSTYYADSVKGRFTISRDNEKITVYLQMNSLKPEDTEVYFCAASRLFGFDYWGQGTQVTVSS | high polyreactivity
QVQLVESGGGLVQAGGSLRLSCAASGFIFYLYAMGWSRQAPGKERELVASINVSGASTRYADSVKGRFTISRDNAKNTVYLQMNSLKPEDTAVYYCAAPSRYDYWGQGTQVTVSS | low polyreactivity
QVQLVESGGGLVQAGGSLRLSCAASGFIFYNAMGWYRQAPGKESELVAAITGSGGRTYYADSVKGRFTISRDNAKNTVYLQMNSLKPEDTAVYYCAADGYVRTVTSGWALRMGYWGQGTQVTVSS | high polyreactivity
QVQLVESGGGLVQAGGSLRLSCAASGFIFYNYAMGWYRQAPGKERELVAAISKSGDSTYYADSVKGRFTISRDNAKNTVYLQMNSLKPEDTAVYYCNKEIVWHLWYESWGQGTQVTVSS | high polyreactivity
QVQLVESGGGLVQAGGSLRLSCAASGFIFYQYAMGWYRQAPGKERELVAAISTRGGSTYYADSVKGRFTISRDNAKNTVYLQMNSLKPEDTAVYYCAATVNARRVTRRYYWGQGTQVTVSS | high polyreactivity
QVQLVESGGGLVQAGGSLRLSCAASGFIFYQYAMGWYRQAPGKERELVAAITSRGGRTYYADSVKGRFTISRDNAKNTVYLQMNSLKPEDTAVYYCAVRKASDYYYWGQGTQVTVSS | high polyreactivity
QVQLVESGGGLVQAGGSLRLSCAASGFIFYRNAMGWYRQAPGKERELVAGISRSGTRTYYADSVKGRFTISRDYSKNTVYLQMNSLKPEDTAVYYCAADRSLGYDYWGQGTQVTVSS | high polyreactivity
QVQLVESGGGLVQAGGSLRLSCAASGFIFYRNPMGWYRQAPGKEREFVAAIRGRGGATYYADSVKGRFTISRDNAKITVYLQMNSLKREDTAVYYCAADTRPGYSGFEYWGQGTQVTVSS | high polyreactivity

Sequence | polyreactivity (PSR sort gate)
QVQLVESGGGLVQAGGSLRLSCAASGFIFYRYAMGWYRQAPGKEREFVASISGSGGRTYFADSVKGRFTISRDNAKNTVYLQMNSLKPEDTAVYYCNVVSKSRISQYVGYSYDYWGQGTQVTVSS | high polyreactivity
QVQLVESGGGLVQAGGSLRLSCAASGFIFYRYAMGWYRQAPGKERELVATIRYSGGSTYYADSVKGRFTISRDNAKNTVYLQMNSLKPEDTAVYYCNARRRHPSVSRPPYDYWGQGTQVTVSS | high polyreactivity
QVQLVESGGGLVQAGGSLRLSCAASGFIFYRYTMGCYRQAPGKERELVAGISSRGTRTYYADSVKGRFTISRDNAKNTVYLQMNSLKPEDTAVYYCAKVDGSKRYNYWGQGTQVTVSS | high polyreactivity
QVQLVESGGGLVQAGGSLRLSCAASGFIFYSNAMGWYRQAPGKERELVAAISRGGGSTYYADSVKGRITISRDNAKNTVYLQMNSLIPVDTAVYYCAKRRLSPQDDYWGQGTQVTVSS | high polyreactivity
QVQLVESGGGLVQAGGSLRLSCAASGFIFYSNAMGWYRQAPGKERELVAAISRSGGSTYYADSVKGRFTISRDNAKNTVYLQMNSLKPEDTAVYYCNADYVYRRYGYWGQGSQVTVSS | high polyreactivity
QVQLVESGGGLVQAGGSLRLSCAASGFIFYSYAMGWYRQAPGKEREFVAAISRGGGRTYYADSVKGRFTISRDNAKNTVYLHMYSLKQEDTAVFYCATLPNGPHWPEYDYWGQGTQVTVSS | high polyreactivity
QVQLVESGGGLVQAGGSLRLSCAASGFIFYSYAMGWYRQAPGKERELVAAISFSGSRTYYADSVKGRFTISRDNAKNTVYLQMNSLKPEDTAVYYCAAYYIASRSTRYYYWGQGTQVTVSS | high polyreactivity
QVQLVESGGGLVQAGGSLRLSCAASGFIFYSYAMGWYRQAPGKERELVAAISRSGGITYYADSVKGRFTISRDNAKNTVYLQMNSLKPEDTAVYYCAKVGRGVSSIKDMDSWGQGTQVTVSS | high polyreactivity
QVQLVESGGGLVQAGGSLRLSCAASGFIFYSYAMGWYRQAPGKERELVAAITSSGGNTYYADSVKGRFTISRDNAKNTVYLQMNSLKPEDSAVYYCAASSRFWTFYYGIILYDYWGQGTQVTVSS | high polyreactivity
QVQLVESGGGLVQAGGSLRLSCAASGFIFYSYPMGWYRKAPGKERALVAAITEDGDSTYYADSVKGRFTISRDNAKNTVYLQMNSLKPVDTAVYYCNTDLTFNGTSGDYDYWGQGTQVTVSS | low polyreactivity
QVQLVESGGGLVQAGGSLRLSCAASGFIFYTYAMGWYRQAPGKERELVAAITWDGGSTYYADSVKGRFTISRDTAKNTVYLQMNSLKPEDTAVYYCNAEYGYIRGNYGYWGQGTQVTVSS | low polyreactivity
QVQLVESGGGLVQAGGSLRLSCAASGFIFYVYAMGWYRQAPGKERELVAAISADGGITYYADSVKGRFTISRDNAKNTVYLQMNSLKPEDTAVYYCNTLGDQDAYAGFRLDYWVQGTQVTVSS | low polyreactivity
QVQLVESGGGLVQAGGSLRLSCAASGFIFYYNAMGWYRQAPGKERELVASISFSGGSTYYADSVKGRFTISRDNAKNTVYLQKNSLKPEDTAVYYCAARYPGGRPWPRYYYWGQGNQVTVSS | high polyreactivity
QVQLVESGGGLVQAGGSLRLSCAASGFIFYYNTMGWYRQAPGKERELVASITWSGDTTYYADSVKGRFTISRDNAKNTVYLQMNSLKPEDTAVYYCAAVHYYTYRRYDYWGQGTQVTVSS | low polyreactivity
QVQLVESGGGLVQAGGSLRLSCAASGFIFYYNVMGWYRQAPGKERELVAAIRYRGTITYYADSVKGRFTISRDNAKNTVYLQMNSLKPEDTAVYYCARRQRNYYRSSPGGDYWGQGTQVTVSS | low polyreactivity
QVQLVESGGGLVQAGGSLRLSCAASGFIFYYYAMGWYRQAPGKERELVAAISRGGSTYYADSVKGRFTISRDNAKNTVYLQMNSLKPEDTAVYYCAAEAFPVYSYYYWGQGTQVTVSS | high polyreactivity
QVQLVESGGGLVQAGGSLRLSCAASGFIFYYYAMGWYRQAPGKERELVAAITSSGGSTYYADSVKGRFTISRDNAKNTVYLQKNSLKPEDTAVYYCAAYYHGRMDYWGQGTQVTVSS | high polyreactivity
QVQLVESGGGLVQAGGSLRLSCAASGFIFYYYAMGWYRQAPGKVRELVAAISTDGGSTYYADSVKGRFTISRDNAKNTVYLQMNSLKPEDTADYYCNAPYYGWGYWPLEYIRYEYWGQGTQVTVSS | low polyreactivity
QVQLVESGGGLVQAGGSLRLSCAASGFIFYYYAMGWYRQAPGKVRELVAGITATGGSTYYADSVKGRFTISRDNAKNTVYLQMNSLKPEDTAVYYCAAEHGRRATYTWWVIYDYLGQGTQVTVSS | low polyreactivity
QVQLVESGGGLVQAGGSLRLSCAASGFIFYYYAMGWYRQAPRKERELVAAISRSGGSTYYADSVKGRFTISRDNAKNTVYLQMNSLKPEDTAVYYCNTVPGTLYFRYDYWGQGTQVTVSS | high polyreactivity
